± gives the uncertainty stated by the source.
B1: Advillin, residues 785 to 819; numbered along this chain, O75366 (parent)
chain: LSEQDFVSVFGITRGQFAALPGWKQLQMKKEKGLF

Variants of: B1
Assay: abundance fitness (aPCA) (normalised: wild type 0, dead -1); higher = more abundant; growth selection in yeast, the domain comes from the species named
Details: Homo sapiens

Row | Variant | abundance fitness
1 | LSEQDFVSVFGITRGQFAALPGMKQLQMKKEKGLF [W23M] | -0.108 ± 0.14
2 | LSEQDFVSVFGITRGQFAALPGNKQLQMKKEKGLF [W23N] | -0.319 ± 0.09
3 | LSEQDFVSVFGITRGQFAALPGPKQLQMKKEKGLF [W23P] | -0.188 ± 0.065
4 | LSEQDFVSVFGITRGQFAALPGQKQLQMKKEKGLF [W23Q] | -0.213 ± 0.093
5 | LSEQDFVSVFGITRGQFAALPGRKQLQMKKEKGLF [W23R] | -0.202 ± 0.058
6 | LSEQDFVSVFGITRGQFAALPGSKQLQMKKEKGLF [W23S] | -0.092 ± 0.061
7 | LSEQDFVSVFGITRGQFAALPGTKQLQMKKEKGLF [W23T] | -0.228 ± 0.067
8 | LSEQDFVSVFGITRGQFAALPGVKQLQMKKEKGLF [W23V] | -0.11 ± 0.078
9 | LSEQDFVSVFGITRGQFAALPGYKQLQMKKEKGLF [W23Y] | -0.211 ± 0.14
10 | LSEQDFVSVFGITRGQFAALPGWCQLQMKKEKGLF [K24C] | -0.342 ± 0.11
11 | LSEQDFVSVFGITRGQFAALPGWDQLQMKKEKGLF [K24D] | -0.143 ± 0.1
12 | LSEQDFVSVFGITRGQFAALPGWEQLQMKKEKGLF [K24E] | -0.142 ± 0.097
13 | LSEQDFVSVFGITRGQFAALPGWFQLQMKKEKGLF [K24F] | -0.403 ± 0.16
14 | LSEQDFVSVFGITRGQFAALPGWGQLQMKKEKGLF [K24G] | -0.488 ± 0.089
15 | LSEQDFVSVFGITRGQFAALPGWHQLQMKKEKGLF [K24H] | -0.61 ± 0.34
16 | LSEQDFVSVFGITRGQFAALPGWIQLQMKKEKGLF [K24I] | -0.148 ± 0.14
17 | LSEQDFVSVFGITRGQFAALPGWMQLQMKKEKGLF [K24M] | -0.098 ± 0.12
18 | LSEQDFVSVFGITRGQFAALPGWNQLQMKKEKGLF [K24N] | -0.433 ± 0.23
19 | LSEQDFVSVFGITRGQFAALPGWPQLQMKKEKGLF [K24P] | -0.475 ± 0.12
20 | LSEQDFVSVFGITRGQFAALPGWQQLQMKKEKGLF [K24Q] | -0.072 ± 0.086
21 | LSEQDFVSVFGITRGQFAALPGWRQLQMKKEKGLF [K24R] | -0.159 ± 0.066
22 | LSEQDFVSVFGITRGQFAALPGWSQLQMKKEKGLF [K24S] | -0.304 ± 0.097
23 | LSEQDFVSVFGITRGQFAALPGWTQLQMKKEKGLF [K24T] | -0.446 ± 0.3
24 | LSEQDFVSVFGITRGQFAALPGWVQLQMKKEKGLF [K24V] | -0.279 ± 0.12

Row | Variant | abundance fitness
25 | LSEQDFVSVFGITRGQFAALPGWYQLQMKKEKGLF [K24Y] | -0.805 ± 0.49
26 | LSEQDFVSVFGITRGQFAALPGWKALQMKKEKGLF [Q25A] | -0.525 ± 0.066
27 | LSEQDFVSVFGITRGQFAALPGWKCLQMKKEKGLF [Q25C] | -0.846 ± 0.17
28 | LSEQDFVSVFGITRGQFAALPGWKELQMKKEKGLF [Q25E] | -0.593 ± 0.069
29 | LSEQDFVSVFGITRGQFAALPGWKGLQMKKEKGLF [Q25G] | -0.568 ± 0.073
30 | LSEQDFVSVFGITRGQFAALPGWKKLQMKKEKGLF [Q25K] | -0.31 ± 0.081
31 | LSEQDFVSVFGITRGQFAALPGWKLLQMKKEKGLF [Q25L] | -0.456 ± 0.074
32 | LSEQDFVSVFGITRGQFAALPGWKMLQMKKEKGLF [Q25M] | -0.507 ± 0.12
33 | LSEQDFVSVFGITRGQFAALPGWKNLQMKKEKGLF [Q25N] | -0.407 ± 0.12
34 | LSEQDFVSVFGITRGQFAALPGWKRLQMKKEKGLF [Q25R] | -0.187 ± 0.07
35 | LSEQDFVSVFGITRGQFAALPGWKSLQMKKEKGLF [Q25S] | -0.735 ± 0.14
36 | LSEQDFVSVFGITRGQFAALPGWKTLQMKKEKGLF [Q25T] | -0.405 ± 0.15
37 | LSEQDFVSVFGITRGQFAALPGWKVLQMKKEKGLF [Q25V] | -0.604 ± 0.11
38 | LSEQDFVSVFGITRGQFAALPGWKWLQMKKEKGLF [Q25W] | -1.4 ± 0.15
39 | LSEQDFVSVFGITRGQFAALPGWKQAQMKKEKGLF [L26A] | 0.034 ± 0.063
40 | LSEQDFVSVFGITRGQFAALPGWKQCQMKKEKGLF [L26C] | -0.606 ± 0.089
41 | LSEQDFVSVFGITRGQFAALPGWKQDQMKKEKGLF [L26D] | -0.01 ± 0.083
42 | LSEQDFVSVFGITRGQFAALPGWKQFQMKKEKGLF [L26F] | -0.185 ± 0.15
43 | LSEQDFVSVFGITRGQFAALPGWKQGQMKKEKGLF [L26G] | -0.146 ± 0.067
44 | LSEQDFVSVFGITRGQFAALPGWKQHQMKKEKGLF [L26H] | -0.132 ± 0.14
45 | LSEQDFVSVFGITRGQFAALPGWKQIQMKKEKGLF [L26I] | -0.181 ± 0.16
46 | LSEQDFVSVFGITRGQFAALPGWKQKQMKKEKGLF [L26K] | 0.068 ± 0.089
47 | LSEQDFVSVFGITRGQFAALPGWKQMQMKKEKGLF [L26M] | -0.114 ± 0.063
48 | LSEQDFVSVFGITRGQFAALPGWKQPQMKKEKGLF [L26P] | -0.914 ± 0.18

Row | Variant | abundance fitness
49 | LSEQDFVSVFGITRGQFAALPGWKQQQMKKEKGLF [L26Q] | 0.12 ± 0.11
50 | LSEQDFVSVFGITRGQFAALPGWKQRQMKKEKGLF [L26R] | -0.033 ± 0.058
51 | LSEQDFVSVFGITRGQFAALPGWKQSQMKKEKGLF [L26S] | 0.069 ± 0.07
52 | LSEQDFVSVFGITRGQFAALPGWKQTQMKKEKGLF [L26T] | -0.075 ± 0.064
53 | LSEQDFVSVFGITRGQFAALPGWKQVQMKKEKGLF [L26V] | 0.073 ± 0.057
54 | LSEQDFVSVFGITRGQFAALPGWKQYQMKKEKGLF [L26Y] | -0.174 ± 0.15
55 | LSEQDFVSVFGITRGQFAALPGWKQLAMKKEKGLF [Q27A] | -0.125 ± 0.061
56 | LSEQDFVSVFGITRGQFAALPGWKQLCMKKEKGLF [Q27C] | -0.432 ± 0.084
57 | LSEQDFVSVFGITRGQFAALPGWKQLDMKKEKGLF [Q27D] | -0.3 ± 0.21
58 | LSEQDFVSVFGITRGQFAALPGWKQLEMKKEKGLF [Q27E] | 0.098 ± 0.075
59 | LSEQDFVSVFGITRGQFAALPGWKQLFMKKEKGLF [Q27F] | -0.416 ± 0.3
60 | LSEQDFVSVFGITRGQFAALPGWKQLGMKKEKGLF [Q27G] | -0.333 ± 0.061
61 | LSEQDFVSVFGITRGQFAALPGWKQLHMKKEKGLF [Q27H] | 0.108 ± 0.26
62 | LSEQDFVSVFGITRGQFAALPGWKQLKMKKEKGLF [Q27K] | -0.064 ± 0.063
63 | LSEQDFVSVFGITRGQFAALPGWKQLLMKKEKGLF [Q27L] | -0.297 ± 0.061
64 | LSEQDFVSVFGITRGQFAALPGWKQLMMKKEKGLF [Q27M] | -0.293 ± 0.11
65 | LSEQDFVSVFGITRGQFAALPGWKQLPMKKEKGLF [Q27P] | -0.589 ± 0.083
66 | LSEQDFVSVFGITRGQFAALPGWKQLRMKKEKGLF [Q27R] | -0.186 ± 0.052
67 | LSEQDFVSVFGITRGQFAALPGWKQLSMKKEKGLF [Q27S] | -0.183 ± 0.063
68 | LSEQDFVSVFGITRGQFAALPGWKQLTMKKEKGLF [Q27T] | -0.459 ± 0.07
69 | LSEQDFVSVFGITRGQFAALPGWKQLVMKKEKGLF [Q27V] | -0.139 ± 0.058
70 | LSEQDFVSVFGITRGQFAALPGWKQLWMKKEKGLF [Q27W] | -0.37 ± 0.066

— the Human Domainome abundance scans (Beltran et al. 2025)
